Results as given in US20190204338A1, “Methods for the Characterisation of Interaction Sites on Target Proteins” (Phylogica Limited, priority 2012, published 2019).

Columns and labels:
FOXO class Forkhead = experiment: Heterologous reporter construct specificity test (FOXO class Forkhead); type: cell-based; conditions: data not shown
Source text: (§1) Transfection of these Phylomers was not generally cytotoxic as assessed by cell viability using the Cell Titre Blue system (Promega) (data not shown). To initially assess their specificity for AP1 inhibition, we tested these hits against two heterologous reporter constructs designed to detect the activation of two distinct transcription factors, namely Notch and FOXO class Forkhead.

Notch = experiment: Heterologous reporter construct specificity test (Notch); type: cell-based; conditions: data not shown
Source text: as §1

B1: 4G9: AP1-inhibitory Phylomer, SEQ ID NO: 6 (LKHRDYWVPL LYFFFVLITM ...), identified by phenotypic screening (protein)
chain: LKHRDYWVPLLYFFFVLITMFWDLYCHSGQYLYEARSLLPFYLFPFLIAALRIGDIVVDTRCRNVENLGGFERSAESSRYVQLSLYERQWFRLRYRAYGGNLRCLAGDLVENWRLWKEVNSKAAKDIDGAVMLRFFLPPRDLARLVTLLAALIAVIATLIITLAIV
modifications: Protein fragment of unknown organism
Q: With B1 as the molecule, how does the “Effect on FOXO class Forkhead reporter construct” value (FOXO class Forkhead) read?
A: Its value is “generally inhibited all reporter constructs”.

Q: What about the “Effect on Notch reporter construct” value (Notch) of the same molecule?
A: Its value is “generally inhibited all reporter constructs”.
